Reference: patent US20150086562A1 (BIOATLA, published 2015)

T1: CD22 protein expressed on the surface of Daudi cells (human, UniProt P20273 20-847)
T1 construct: whole, on cells; also called human CD22; cell surface CD22
T1 sequence (looked up): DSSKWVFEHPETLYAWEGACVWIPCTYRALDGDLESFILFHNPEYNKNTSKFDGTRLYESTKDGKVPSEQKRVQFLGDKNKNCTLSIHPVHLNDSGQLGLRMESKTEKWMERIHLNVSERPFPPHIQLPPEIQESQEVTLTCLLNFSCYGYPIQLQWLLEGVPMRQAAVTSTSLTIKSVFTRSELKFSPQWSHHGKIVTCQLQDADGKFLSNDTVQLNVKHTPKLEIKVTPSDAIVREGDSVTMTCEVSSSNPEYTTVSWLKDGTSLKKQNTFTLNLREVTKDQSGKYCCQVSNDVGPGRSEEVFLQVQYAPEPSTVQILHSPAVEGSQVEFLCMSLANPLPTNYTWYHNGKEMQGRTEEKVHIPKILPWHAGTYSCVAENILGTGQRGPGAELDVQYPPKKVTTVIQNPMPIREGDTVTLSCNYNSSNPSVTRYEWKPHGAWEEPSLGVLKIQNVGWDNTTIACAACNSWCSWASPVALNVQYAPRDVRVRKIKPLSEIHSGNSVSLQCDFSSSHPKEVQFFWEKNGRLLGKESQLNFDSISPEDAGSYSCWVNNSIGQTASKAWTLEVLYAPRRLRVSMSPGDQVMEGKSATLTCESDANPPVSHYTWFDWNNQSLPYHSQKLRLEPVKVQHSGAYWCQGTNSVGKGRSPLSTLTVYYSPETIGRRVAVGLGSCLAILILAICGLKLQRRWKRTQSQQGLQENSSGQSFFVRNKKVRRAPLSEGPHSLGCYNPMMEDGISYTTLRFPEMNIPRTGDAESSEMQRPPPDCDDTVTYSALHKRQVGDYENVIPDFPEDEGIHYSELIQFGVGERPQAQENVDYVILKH


Tests used:
[1] = target: T2, recombinant CD22 extracellular domain; test: ELISA on plates coated with recombinant CD22 extracellular domain (coating 2, 0.2, 0.02 or 0.002 ug/ml per paragraph 227; the sheet does not say which), anti-human IgG-HRP, read at 450 nm
T2 construct: Kept apart from m18, which is cell-surface CD22; also called CD22 (analyte in the BIAcore runs); CD22 ECD
Experimental: Nunc-Immuno MaxiSorp 96 well plates were coated with 100 μl of 2 μg/ml, 0.2 μg/ml, 0.02 μg/ml or 0.002 μg/ml recombinant CD22 extracellular domain (PeproTech, Inc. catalog number 100-01 in coating solution (sodium bicarbonate in PBS). The plates were covered with plate sealer and incubated at 4° C. overnight. Plates were emptied and the residual liquid tapped out on paper towels. 200 μl washing solution (0.05% Tween-20 in PBS) was added and shaken at 200 RPM for 5 min at room temperature. The plates were emptied and residual liquid tapped out on paper towels. 200 μl blocking solution (2% Carnation milk in PBS) was added and shaken at 200 RPM for one hour at room temperature. Plates were emptied and residual liquid tapped out on paper towels. 100 μl of diluted samples containing VM1000, VM1001, VM1002, VM1003, VM1004, VM1005, VM1006, VM1007, VM1008, VM1009, VM1010, VM1011, VM1012, VM1013, VM1014, and VM1015 antibodies for ELISA were used. The samples were shaken at 200 RPM for one hour at room temperature; plates emptied and residual liquid tapped out on paper towels. 200 μl washing solution (0.05% Tween-20 in PBS) was added, shaken at 200 RPM for 5 min at room temperature; plates emptied and residual liquid tapped out on paper towels. This process was repeated three times. 100 μl of 1:2500 dilution of anti-human IgG conjugated with HRP diluted in block solution (2% Carnation milk in PBS) was added for all samples. 100 μl of 1:2500 dilution of anti-rabbit IgG conjugated with HRP diluted in block solution (2% Carnation milk in PBS) was added for control antibody. The contents were shaken at 200 RPM for one hour at room temperature, plates emptied and residue liquid tapped out on paper towels. 200 μl washing solution (0.05% Tween-20 in PBS) was added, shaken at 200 RPM for 5 min at room temperature; plates emptied and residual liquid tapped out on paper towels. This process was repeated three times. 100 μl TMB substrate solution was added, and incubated at room temperature. The reaction was stopped with 1 N HCl, and the plate read at 450 nm to determine relative binding affinity (FIG. 17).

[2] = target: T1, CD22 protein expressed on the surface …; test: confocal immunofluorescence, FITC-labelled antibody on Daudi cells
Experimental: Selected antiCD22 selected anti-CD22 Mab clones VM1000, VM1001, VM1002, VM1003, VM1004, VM1005, VM1006, VM1007, VM1008, VM1009, VM1010, VM1011, VM1012, VM1013, VM1014, and VM1015 of the invention were directly conjugated to F1TC using the Zenon labeling complex (Molecular Probes) using the manufacturer's recommended procedures. Approximately 1×10e7 Daudi cells were resuspended in PBS containing 5 ug/ml labeled anti-CD22 antibody and incubated for 45 minutes on ice. Cells then washed twice in PBS-FBS solution at 0 C. Cells were then incubated in RPMI 1640 media containing 10% FBS for varying periods at 37 C, harvested and washed in PBS at 0 C. The cells were then briefly fixed in 4% paraformaldehyde solution for 5 min at room temperature, then washed in PBS containing 0.05% Triton X-100. Cell pellets were collected by centrifugation and resupended in a minimal volume of FBS neat, and then applied to glass microscope slides. Prior to analysis, slides were treated with mounting fluid containing the nuclear stain DAPI, then coverslips were applied. Confocal images were recorded using an ACAS Ultima confocal microscope (Meridian Instruments, Inc., Okemos, Mich.) and represent 1-μm sections through the center of a focal plane using a 100× oil immersion objective.
The Anti-CD22 monoclonal antibodies selected clones VM1000, VM1001, VM1002, VM1003, VM1004, VM1005, VM1006, VM1007, VM1008, VM1009, VM1010, VM1011, VM1012, VM1013, VM1014, and VM1015 of the invention were analysed for their ability to be rapidly internalized into the intracellular compartment as judged by immunoflourescent signal on the cell surface versus the intracellular endo cytotic compartment. The antibodies of the invention were compared to BA006H, and humanized version of the murine monoclonal antibody LL2. In this example, FIG. 21A, the anti-CD22 antibodies of the invention bind to CD22 protein expressed on the surface of Daudi cells by approximately 20-fold compared to BA006H as judged by relative mean fluorescence (RMF), and are virtually completely internalized within the cell with 90 minutes, localizing predominantly to within the perinuclear golgi apparatus and associated lysozomes. Shown in FIG. 21B is a chart of the RMF surface binding values obtained in this manner for individual anti-CD22 antibodies of the invention.

[3] = target: T1, CD22 protein expressed on the surface …; test: cell-based or functional assay

Binder	ELISA OD 450 [1]	fold surface binding by relative mean fluorescence (RMF) compared to BA006H [2]	Daudi Internalization by FACS, % Shift [3]
VM1008 (antibody, V domains shown, Humanized antibody with human constant region; also called Anti-CD22 Ab VM1008; anti-CD22 Mab clone VM1008) VH: QVQLVQSGAEVKKPGASVKVSCKASGYVFTSYWLHWVRQARGQRLEWIGYINPRNDYTEYNRIFKGRVTITADKSTSTAYMELSSLRSEDTAVYYCARRGITTFYWGQG VL: DIQMTQSPSSLSASVGDRVTITCKSSQSVLYSAVEKNYLAWYQQKPGQAPRLLIYWASTRERGIPDRFSGSGSGTDFTLTISRLEPEDFAVYYCKQYLSSWTFGQG	0.67	~20 fold	69.4%
VM1013 (antibody, V domains shown, Humanized antibody with human constant region; also called anti-CD22 Mab clone VM1013) VH: QVQLQESGPGLVKPSQTLSLTCTVSGYVFTSYWLHWIRQPPGKGLEWIGYINPRNDYTEYNRIFKGRFTISRDNAKNSLYLQMNSLRAEDTAVYYCARRGITTFYWGQG VL: AIQLTQSPSSLSASVGDRVTITCKSSQSVLYSAVEKNYLAWYQQKPGQAPRLLIYWASTRERGVPSRFSGSGSGTDFTLTISSLQPEDFATYYCKQYLSSWTFGQG	–	~20 fold	88.8%
VM1009 (antibody, V domains shown, Humanized antibody with human constant region; also called anti-CD22 Mab clone VM1009) VH: QVQLVQSGAEVKKPGASVKVSCKASGYVFTSYWLHWIRQSPSRGLEWLGYINPRNDYTEYNRIFKGRFVFSLDTSVSTAYLQICSLKAEDTAVYYCARRGITTFYWGQG VL: EIVLTQSPATLSLSPGERATLSCKSSQSVLYSAVEKNYLAWYQQKPGKAPKLLIYWASTRERGVPSRFSGSGSGTDFTFTISSLEAEDAATYYCKQYLSSWTFGQG	0.597	~20 fold	69.4%
VM1005 (antibody, V domains shown, Humanized antibody with human constant region; also called anti-CD22 Mab clone VM1005) VH: EVQLVQSGAEVKKPGATVKISCKVSGYVFTSYWLHWIRQSPSRGLEWLGYINPRNDYTEYNRIFKGRFVFSLDTSVSTAYLQICSLKAEDTAVYYCARRGITTFYWGQG VL: AIQLTQSPSSLSASVGDRVTITCKSSQSVLYSAVEKNYLAWYQQKPGQAPRLLIYWASTRERGVPSRFSGSGSGTDFTLTISSLQPEDFATYYCKQYLSSWTFGQG	0.372	~20 fold	86.4%
VM1010 (antibody, V domains shown, Humanized antibody with human constant region; also called anti-CD22 Mab clone VM1010) VH: EVQLVQSGAEVKKPGESLRISCKVSGYVFTSYWLHWIRQSPSRGLEWLGYINPRNDYTEYNRIFKGRFTISRDNAKNSLYLQMNSLRAEDTAVYYCARRGITTFYWGQG VL: EIVLTQSPATLSLSPGERATLSCKSSQSVLYSAVEKNYLAWYQQKPGKAPKLLIYWASTRERGVPSRFSGSGSGTDFTFTISSLQPEDIATYYCKQYLSSWTFGQG	0.7	~20 fold	65.7%
VM1012 (antibody, V domains shown, Humanized antibody with human constant region; also called anti-CD22 Mab clone VM1012) VH: QVQLVQSGAEVKKPGASVKVSCKASGYVFTSYWLHWVRQAPGQGLEWMGYINPRNDYTEYNRIFKGRFTISRDNAKNSLYLQMNSLRAEDTAVYYCARRGITTFYWGQG VL: EIVLTQSPATLSVSPGERATLSCKSSQSVLYSAVEKNYLAWYQQKPGQAPRLLIYWASTRERGVPSRFSGSGSGTDFTFTISSLQPEDIATYYCKQYLSSWTFGQG	–	~20 fold	87.5%
